Test results published in patent US20240294646A1.
Blank lines part the entries; values can stand above or below the substance they belong to.

Key:
[1] = biological target: FcγRIIaR, soluble extracellular domain (UniProt P12318); assay: SPR; fold change in affinity over wild-type v16463
[2] = biological target: FcγRIIb, soluble extracellular domain (UniProt P31994); assay: SPR; fold change in affinity over wild-type v16463
[3] = biological target: FcγRIIb, soluble extracellular domain (UniProt P31994); assay: SPR; IIb-Fold/IIaR-Fold (FcγRIIb against FcγRIIaR), vs. wild-type v16463
[4] = biological target: FcγRIIaR, soluble extracellular domain (UniProt P12318); assay: SPR (General Methods Protocol 2): one-armed antibody captured on immobilised HER2, soluble receptor as analyte
[5] = biological target: FcγRIIb, soluble extracellular domain (UniProt P31994); assay: as above
[6] = biological target: Soluble FcγRIIaR extracellular domain with C-terminal 10×His tag (UniProt P12318); assay: SPR; KD of WT v16463 / KD of variant
[7] = biological target: Soluble FcγRIIb extracellular domain with C-terminal 10×His tag (UniProt P31994); assay: SPR; KD of WT v16463 / KD of variant
[8] = biological target: Soluble FcγRIIb extracellular domain with C-terminal 10×His tag (UniProt P31994); assay: SPR; IIb-Fold / IIaR-Fold (FcγRIIb against FcγRIIaR)
[9] = biological target: Soluble FcγRIIaR extracellular domain with C-terminal 10×His tag (UniProt P12318); assay: SPR (Biacore 4000), antibody captured on immobilised HER2, receptor as analyte
[10] = biological target: Soluble FcγRIIb extracellular domain with C-terminal 10×His tag (UniProt P31994); assay: as above
FcγRIIb [11] = biological target: FcγRIIb (UniProt P31994); assay: SPR (Protocol 2), against wild-type 16463
FcγRIIb [12] = biological target: FcγRIIb (UniProt P31994); assay: SPR (Protocol 2); selectivity for FcγRIIb against FcγRIIaR
FcγRIIaR [13] = biological target: FcγRIIaR (UniProt P12318); assay: SPR (Protocol 2, Biacore 4000), antibody captured on immobilised HER2, FcγR as analyte
FcγRIIb [14] = biological target: FcγRIIb (UniProt P31994); assay: as above
[15] = biological target: Soluble FcγRIIb extracellular domain with C-terminal 10xHis tag (UniProt P31994); assay: SPR; IIb-Fold / IIaR-Fold
[16] = biological target: Soluble FcγRIIaR extracellular domain with C-terminal 10xHis tag (UniProt P12318); assay: SPR; fold relative to control v27293
[17] = biological target: Soluble FcγRIIb extracellular domain with C-terminal 10xHis tag (UniProt P31994); assay: SPR; fold relative to control v27293
[18] = biological target: Soluble FcγRIIaR extracellular domain with C-terminal 10xHis tag (UniProt P12318); assay: SPR; fold change in affinity over WT v16463
[19] = biological target: Soluble FcγRIIb extracellular domain with C-terminal 10xHis tag (UniProt P31994); assay: SPR; fold change in affinity over WT v16463
[20] = biological target: Soluble FcγRIIb extracellular domain with C-terminal 10xHis tag (UniProt P31994); assay: SPR; selectivity relative to control v27293
[21] = biological target: Soluble FcγRIIaR extracellular domain with C-terminal 10xHis tag (UniProt P12318); assay: SPR, antibody captured on immobilised HER2, soluble receptor as analyte
[22] = biological target: Soluble FcγRIIb extracellular domain with C-terminal 10xHis tag (UniProt P31994); assay: as above
[23] = biological target: Biotinylated FcγRIIb extracellular domain-Fc fusion (human IgG1 Fc with L234A_L235A_D265S) (human) (UniProt P31994); assay: competition electrochemiluminescence, antibody on HER2-coated plate, biotinylated FcγRIIb-Fc; competitor FcγRIIaR-Fc at 10x
FcγRIIb [24] = biological target: FcγRIIb (UniProt P31994); assay: SPR; IIb-Fold divided by IIaR-Fold (FcγRIIb against FcγRIIaR)
FcγRIIaR [25] = biological target: FcγRIIaR (UniProt P12318); assay: SPR, antibody captured on immobilised HER2, receptor as analyte; fold affinity over WT v16463
FcγRIIb [26] = biological target: FcγRIIb (UniProt P31994); assay: as above
FcγRIIb [27] = biological target: FcγRIIb (UniProt P31994); assay: derived from the SPRi KDs for FcγRIIb and FcγRIIaR, relative to WT
FcγRIIaR [28] = biological target: FcγRIIaR (UniProt P12318); assay: SPR imaging (IBIS MX96), antibody spotted on chip, soluble receptor as analyte, kinetic fit, 25 C, pH 7.4
FcγRIIb [29] = biological target: FcγRIIb (UniProt P31994); assay: as above
FcγRIIb [30] = biological target: FcγRIIb (UniProt P31994); assay: SPR; IIb-Fold divided by IIaR-Fold, selectivity for FcγRIIb over FcγRIIaR relative to wild-type
FcγRIIIaF = FcγRIIIaF (UniProt P08637); assay: SPR, antibody captured on HER2 chip, receptor as analyte; fold change in affinity over wild-type
FcγRIIaH = FcγRIIaH (UniProt P12318); assay: as above
FcγRIIaR [31] = biological target: FcγRIIaR (UniProt P12318); assay: as above
FcγRIIb [32] = biological target: FcγRIIb (UniProt P31994); assay: as above
FcγRIa = FcγRIa (UniProt P12314); assay: as above
[33] = biological target: Soluble FcγRIIaR extracellular domain with C-terminal 10×His tag (UniProt P12318); assay: SPR; KD ratio against wild-type v16463
[34] = biological target: Soluble FcγRIIb extracellular domain with C-terminal 10×His tag (UniProt P31994); assay: SPR; KD ratio against wild-type v16463
[35] = biological target: Soluble FcγRIIaR extracellular domain with C-terminal 10×His tag (UniProt P12318); assay: SPR, antibody captured on HER2 chip, receptor as analyte
[36] = biological target: Soluble FcγRIIb extracellular domain with C-terminal 10×His tag (UniProt P31994); assay: as above
[37] = biological target: Soluble FcγRIIb extracellular domain with C-terminal 10×His tag (UniProt P31994); assay: SPR; ratio of IIb-Fold to IIaR-Fold (FcγRIIb against FcγRIIaR)
[38] = biological target: Biotinylated FcγRIIb extracellular domain-Fc fusion (human IgG1 Fc with L234A_L235A_D265S) (human) (UniProt P31994); assay: competition electrochemiluminescence assay; antibody on HER2, biotinylated FcγRIIb-Fc, competitor FcγRIIaR-Fc
[39] = biological target: Soluble FcγRIIb extracellular domain with C-terminal 10xHis tag (UniProt P31994); assay: SPR; IIb-Fold/IIaR-Fold (FcγRIIb against FcγRIIaR)
[40] = biological target: Soluble FcγRIIaR extracellular domain with C-terminal 10xHis tag (UniProt P12318); assay: SPR; fold change in affinity over wild-type v16463
[41] = biological target: Soluble FcγRIIb extracellular domain with C-terminal 10xHis tag (UniProt P31994); assay: SPR; fold change in affinity over wild-type v16463
[42] = biological target: Soluble FcγRIIaR extracellular domain with C-terminal 10xHis tag (UniProt P12318); assay: SPR (Biacore 4000), antibody captured on immobilised HER2, receptor as analyte
[43] = biological target: Soluble FcγRIIb extracellular domain with C-terminal 10xHis tag (UniProt P31994); assay: as above
[44] = biological target: Biotinylated FcγRIIb extracellular domain-Fc fusion (human IgG1 Fc with L234A_L235A_D265S) (human) (UniProt P31994); assay: competition electrochemiluminescence (MSD), antibody on coated HER2, biotinylated FcγRIIb-Fc with FcγRIIaR-Fc as competitor
[45] = biological target: Soluble FcγRIIaR extracellular domain with C-terminal 10xHis tag (UniProt P12318); assay: SPR; KD of WT v16463 / KD of variant
[46] = biological target: Soluble FcγRIIb extracellular domain with C-terminal 10xHis tag (UniProt P31994); assay: SPR; KD of WT v16463 / KD of variant
[47] = biological target: Soluble FcγRIIaR extracellular domain with C-terminal 10xHis tag (UniProt P12318); assay: SPR; fold affinity relative to control v27293
[48] = biological target: Soluble FcγRIIb extracellular domain with C-terminal 10xHis tag (UniProt P31994); assay: SPR; fold affinity relative to control v27293
[49] = biological target: Soluble FcγRIIb extracellular domain with C-terminal 10xHis tag (UniProt P31994); assay: SPR; IIb selectivity relative to control v27293
[50] = biological target: Soluble FcγRIIb extracellular domain with C-terminal 10xHis tag (UniProt P31994); assay: SPR; IIb-Fold / IIaR-Fold (FcγRIIb against FcγRIIaR)
[51] = biological target: Soluble FcγRIIaR extracellular domain with C-terminal 10xHis tag (UniProt P12318); assay: SPR (Biacore 4000); variant captured on HER2, receptor in solution
[52] = biological target: Soluble FcγRIIb extracellular domain with C-terminal 10xHis tag (UniProt P31994); assay: as above

IIaR-Fold vs. WT [1]: 1 fold | IIb-Fold vs. WT [2]: 1 fold | IIb/IIaR Selectivity vs. WT [3]: 1 fold | Kd [4]: 310 nM | Kd [5]: 1400 nM
Substance: Variant 16463, wild-type one-armed trastuzumab antibody (OAA) with heterodimeric IgG1 Fc

IIaR-fold [6]: 1 fold | IIb-Fold [7]: 1 fold | IIb Selectivity [8]: 1 fold | Kd [9]: 310 nM | Kd [10]: 1400 nM
Substance: Variant 16463, wild-type one-armed trastuzumab antibody with heterodimeric IgG1 Fc

IIb-Fold (fold change in affinity over wild-type) (fold over wild-type) (FcγRIIb [11]): 29.3 | IIb/IIaR Selectivity (FcγRIIb [12]): 1.4 | Kd (FcγRIIaR [13]): 17 nM | Kd (FcγRIIb [14]): 39 nM
Substance: Variant 18372, control without loop replacement (chain B S239D_H268D), one-armed antibody Scaffold 2

IIb Selectivity [15]: 11.8 | IIaR-Fold wrt Control [16]: 1 fold | IIb-Fold wrt Control [17]: 1 fold | IIaR-fold [18]: 35.2 fold | IIb-Fold [19]: 415 fold | IIb Selectivity Fold wrt Control [20]: 1 fold | Kd [21]: 8.8 nM | Kd [22]: 3.5 nM | ELISA (% of non-competed FcγRIIb signal in presence of 10x FcγRIIa) [23]: 70.8%
Substance: Variant 27293, Launching Module 1 (A_G236N_G237A / B_G236D_G237F_S239D_S267V_H268D_Template_1), one-armed trastuzumab antibody

IIb Selectivity (FcγRIIb [24]): 9 fold | IIaR-fold (FcγRIIaR [25]): 1 fold | IIb-Fold (FcγRIIb [26]): 9 fold
Substance: Variant 27362, Strat 3 control (A_G236N_G237A / B_G236D_G237F_S239D_S267V_H268D) (antibody)

IIb Selectivity (IIb-Fold/IIaR-Fold) (FcγRIIb [27]): 106 fold | Kd (FcγRIIaR [28]): 460 nM | Kd (FcγRIIb [29]): 13 nM
Substance: v12 (IIb-specific comparator, symmetrical E233D_G237D_P238D_H268D_P271G_A330R), anti-CD19 (4G7) full-size antibody

IIb/IIaR Selectivity (ratio (IIb-Fold/IIaR-Fold)) (FcγRIIb [30]): 82.9 | FcγR Binding (Fold Change over WT) (FcγRIIIaF): 0.1 fold over WT | FcγR Binding (Fold Change over WT) (FcγRIIaH): 0.1 fold over WT | FcγR Binding (Fold Change over WT) (FcγRIIaR [31]): 1.4 fold over WT | FcγR Binding (Fold Change over WT) (FcγRIIb [32]): 112 fold over WT | FcγR Binding (Fold Change over WT) (FcγRIa): 0 fold over WT
Substance: v12 (OAA), IIb-specific comparator, trastuzumab one-armed antibody with symmetrical E233D_G237D_P238D_H268D_P271G_A330R

IIaR-fold [33]: 1.4 fold | IIb-Fold [34]: 112 fold | Kd [35]: 220 nM | Kd [36]: 13 nM | IIb Selectivity (IIb-Fold/IIaR-Fold) [37]: 80.5 fold | ELISA (% of non-competed FcγRIIb signal in presence of 10x FcγRIIa) [38]: 100%
Substance: v12, IIb-specific comparator with symmetrical E233D_G237D_P238D_H268D_P271G_A330R (Mimoto et al. 2013), trastuzumab antibody

IIb Selectivity [39]: 80.5 fold | IIaR-fold [40]: 1.4 fold | IIb-Fold [41]: 112 fold | Kd [42]: 220 nM | Kd [43]: 13 nM | ELISA (% of non-competed FcγRIIb signal in presence of 10x FcγRIIa) [44]: 100%
Substance: v12, symmetrical E233D_G237D_P238D_H268D_P271G_A330R (IIb-specific comparator) (antibody)

IIaR-fold [45]: 37.3 fold | IIb-Fold [46]: 585 fold | IIaR-Fold wrt Control [47]: 1.1 fold | IIb-Fold wrt Control [48]: 1.4 fold | IIb Selectivity Fold wrt Control [49]: 1.3 fold | IIb Selectivity [50]: 15.7 fold | Kd [51]: 8.3 nM | Kd [52]: 2.5 nM
Substance: v26133 (A_N236I_strat1), one-armed trastuzumab antibody
